We go through one protein from paper PMC9504416, “Functional Characterization of an Arabidopsis Profilin Protein as a Molecular Chaperone under Heat Shock Stress” (Molecules, 2022).

This data set concerns the molecule itself. Description: native gel or EMSA; 10% native PAGE with silver staining; concentration-dependent aliquots of recombinant protein, incubated at 25 °C for 30 min and centrifuged at 13,000 x g for 15 min.

B1: Arabidopsis thaliana profilin-2 (AtPFN2), recombinant (natural protein, UniProt Q42418 1-131, looked up)
chain: MSWQSYVDDHLMCEVEGNHLTHAAIFGQDGSVWAQSSAFPQLKPAEIAGINKDFEEAGHLAPTGLFLGGEKYMVVQGEAGAVIRGKKGPGGVTIKKTTQALVFGIYDEPMTGGQCNLVVERLGDYLIESGL
notes: Profilin-2 (AtPFN2) of Arabidopsis thaliana, amplified by PCR from an A. thaliana cDNA library; single band of 14 kDa on SDS-PAGE; Homo-oligomer of various sizes; The vector pET28(a) probably adds the His tag; no removal of the tag is told; also called Arabidopsis PFN2; source: E. coli BL21 (DE3), pET28(a), purified (HisPur cobalt resin, imidazole elution; SEC)
B1: the binding result is given as “binds”.
